In data set [1] the target is Cx34.7E214K/E223K/E225K (Morone americana Cx34.7 triple mutant) (Morone americana). Put plainly: FETCH (flow cytometry, % dual-labelled HEK 293FT cells), homotypic.
Data set [2] deals with the molecule itself. The data set can be described thus: homotypic FETCH screen. How it is done:
(§1) Complete FETCH methodology is outlined in Ransey et. al. 2021 (Ransey E, et al. (2021) BioRxiv). Briefly, replica multi-well plates with HEK 293FT cells were transfected with either of the two connexin proteins being evaluated for docking. Following a transfection incubation period, experimental counterparts were combined, replated, and further incubated for about 20 hr to about 24 hrs, allowing cells to make contacts and potentially generate connexosomes. Co-plated samples were trypsinized, fixed in suspension and analyzed via flow cytometry. Flow cytometry data was processed with two selection gates prior to their fluorescence evaluation. First, putative HEK cells were identified by evaluating sample forward vs. side scatter area. Next, single cells were identified as the putative cells that maintained a linear correlation of forward scatter height to forward scatter area. Finally, the dual fluorescence (mEmerald vs. RFP670) profiles of each sample was generated, and the FETCH score was defined as the proportion of dual-labeled fluorescent cells that develop in a co-plated sample.
For screening analysis, five FETCH replicates were obtained for each condition (mutation). These scores were benchmarked against scores for Cx36 and Cx45 (FETCH=1.2±0.1%, n=54 replicates). To quantitatively determine whether a connexin pair docked, FETCH scores were determined for the dual fluorescence of cells under conditions where docking was not anticipated. These conditions included pairs of connexins previously established to not show docking: (i) Cx36 and Cx45 (FETCH=0.7±0.0%, n=59 replicates), (ii) homotypic Cx23 (FETCH=0.9±0.4%, n=6 previously collected replicates (Ransey E, et al. (2021) BioRxiv), and (iii) Cx36 and Cx43 (FETCH=1.2±0.2%, n=10 previously collected replicates (Ransey E, et al. (2021) BioRxiv), and under conditions for which cells were transfected with cytoplasmic fluorophores rather than tagged connexins (FETCH=4.4±0.6%, n=17 previously collected replicates (Ransey E, et al. (2021) BioRxiv).

The target in data set [3] is T1, human connexin36 (Cx36) (human, UniProt Q9UKL4 1-321).
T1 construct: whole, on cells; Hemichannel expressed in HEK 293FT cells for FETCH; also called GJD2; not shown: C-terminal fluorescent protein fusion (mEmerald or RFP670 in FETCH)
T1 sequence (looked up): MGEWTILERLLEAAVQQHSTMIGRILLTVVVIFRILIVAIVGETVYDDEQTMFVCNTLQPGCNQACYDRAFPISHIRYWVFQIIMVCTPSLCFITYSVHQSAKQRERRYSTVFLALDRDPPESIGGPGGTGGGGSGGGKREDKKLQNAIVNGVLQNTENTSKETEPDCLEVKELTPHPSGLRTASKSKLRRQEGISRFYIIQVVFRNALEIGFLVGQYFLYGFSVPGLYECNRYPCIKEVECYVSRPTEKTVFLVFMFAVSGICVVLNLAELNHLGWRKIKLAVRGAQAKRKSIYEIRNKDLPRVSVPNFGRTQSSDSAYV
Put plainly: FETCH (flow cytometry, % dual-labelled HEK 293FT cells), heterotypic. How it is done: as §1
On the technique in general: A flow cytometer gives signals particle by particle.

Data set [4] addresses T2, human connexin43 (Cx43) (human, UniProt P17302 2-382).
T2 construct: whole, on cells; Hemichannel expressed in HEK 293FT cells for FETCH; also called GJA1; not shown: C-terminal fluorescent protein fusion (mEmerald or RFP670 in FETCH)
Put plainly: heterotypic FETCH. On the procedure: as §1

In data set [5] the target is T2, human connexin43 (Cx43). Put plainly: FETCH (flow cytometry, % dual-labelled HEK 293FT cells), heterotypic, n=6. How it is done: as §1
The target of data set [6] is T1, human connexin36 (Cx36). Put plainly: heterotypic FETCH. On the procedure: as §1
Data set [7] concerns the molecule itself. Put plainly: homotypic FETCH. On the procedure:
as §1

Data set [8] addresses Cx34.7E214K/E223K/E225K (Morone americana Cx34.7 triple mutant) (Morone americana). The data set can be described thus: FETCH (flow cytometry, % dual-labelled HEK 293FT cells), heterotypic.
Data set [9] concerns the molecule itself. The data set can be described thus: FETCH (flow cytometry, % dual-labelled HEK 293FT cells), homotypic. How it is done:
as §1

For data set [10], the target named is T2, human connexin43 (Cx43). Put plainly: FETCH (flow cytometry, % dual-labelled HEK 293FT cells), heterotypic. On the procedure: as §1

Numbering of substitutions follows the chain as printed. In names and notes the source's numbering stands.

T2 sequence (P17302 2-382): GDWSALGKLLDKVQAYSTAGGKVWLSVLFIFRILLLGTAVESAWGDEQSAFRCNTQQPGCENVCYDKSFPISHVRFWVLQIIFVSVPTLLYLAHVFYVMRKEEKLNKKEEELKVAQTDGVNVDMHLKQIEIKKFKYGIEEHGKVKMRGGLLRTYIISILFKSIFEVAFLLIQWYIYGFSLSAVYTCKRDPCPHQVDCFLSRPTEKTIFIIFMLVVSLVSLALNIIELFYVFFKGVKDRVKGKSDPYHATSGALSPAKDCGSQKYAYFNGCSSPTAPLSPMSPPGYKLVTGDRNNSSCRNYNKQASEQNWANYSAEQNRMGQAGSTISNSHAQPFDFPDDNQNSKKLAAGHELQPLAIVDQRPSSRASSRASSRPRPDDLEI

B1: Cx34.7E214K/E223K/E225K (Morone americana Cx34.7 triple mutant) (protein, not shown: large carriers)
chain: MGEWTILERLLEAAVQQHSTMIGRILLTVVVIFRILIVAIVGETVYEDEQAMFICNTLQPGCNQACYDKAFPISHIRYWVFQIILVCTPSLCFITYSVHQSAKQKDRRYSFLYPIMERDYGGRDGARKLRNINGILVQHGGDGGGGKEEPDCLEVKEIPNAPRGLTHGKSSKVRRQEGISRFYIIQVVFRNALEIGFLAGQYFLYGFSVPGIFKCDRYPCLKKVKCYVSRPTEKTVFLVFMFAVSGICVVLNLAELNHLGWRKIKAAIRGVQARRKSICEIRKKDMAHLSQPPNLGRTQSSESAYV
Turning to B1, in [1], the FETCH score came out at 0.2%.

B2: Cx34.7 mutant E225K (Morone americana) (other)
chain: B1 chain with K214E, K223E
notes: Extracellular loop mutant of the screening library; also called Cx34.7 E225K; not shown: C-terminal fluorescent protein fusion (mEmerald or RFP670 in FETCH)
For the molecule B2, in data set [2], the binding result was “no binding”.

B3: Cx34.7 mutant Y78T (Morone americana) (other)
chain: B1 chain with Y78T, K214E, K223E, K225E
notes: Extracellular loop mutant of the screening library; also called Cx34.7 Y78T; not shown: C-terminal fluorescent protein fusion (mEmerald or RFP670 in FETCH)
For the molecule B3, in data set [2], the binding result is recorded as “no binding”.

B4: Cx34.7 mutant Y78V (Morone americana) (other)
chain: B1 chain with Y78V, K214E, K223E, K225E
notes: Extracellular loop mutant of the screening library; also called Cx34.7 Y78V; not shown: C-terminal fluorescent protein fusion (mEmerald or RFP670 in FETCH)
For the molecule B4, in data set [2], the binding result is “no binding”.

B5: Cx34.7 mutant L238Y (Morone americana) (other)
chain: B1 chain with K214E, K223E, K225E, L238Y
notes: Extracellular loop mutant of the screening library; also called Cx34.7 L238Y; not shown: C-terminal fluorescent protein fusion (mEmerald or RFP670 in FETCH)
With B5, in data set [2], the binding result is given as “no binding”.

B6: Cx34.7 mutant E225R (Morone americana) (other)
chain: B1 chain with K214E, K223E, K225R
notes: Extracellular loop mutant of the screening library; also called Cx34.7 E225R; not shown: C-terminal fluorescent protein fusion (mEmerald or RFP670 in FETCH)
As to B6, in [2], the binding result is reported as “no binding”.

B7: Cx34.7 mutant Y78S (Morone americana) (other)
chain: B1 chain with Y78S, K214E, K223E, K225E
notes: Extracellular loop mutant of the screening library; also called Cx34.7 Y78S; not shown: C-terminal fluorescent protein fusion (mEmerald or RFP670 in FETCH)
For the molecule B7, the binding result in data set [2] is on record as “no binding”.

B8: Wild-type Connexin35 (Cx35) of Morone americana (other)
chain: MGEWTILERLLEAAVQQHSTMIGRILLTVVVIFRILIVAIVGETVYDDEQTMFVCNTLQPGCNQACYDKAFPISHIRYWVFQIIMVCTPSLCFITYSVHQSAKQKERRYSTVYLTLDKDQDSLKRDESKKIKNTIVNGVLQNTENSTKEAEPDCLEVKEIPNSAMRTTKSKMRRQEGISRFYIIQVVFRNALEIGFLVGQYFLYGFNVPSVYECDRYPCIKDVECYVSRPTEKTVFLVFMFAVSGFCVVLNLAELNHLGWRKIKTAVRGVQARRKSIYEIRNKDLPRMSVPNFGRTQSSDSAYV
notes: Connexin hemichannel (hexamer) expressed in HEK 293FT cells; In C. elegans it was expressed as GFP or mCherry fusion; also called Cx35WT; not shown: C-terminal fluorescent protein fusion (mEmerald or RFP670 in FETCH)
Consider B8, for which the FETCH score in data set [3] turned out to be 18%.

B9: Cx35 mutant Y78S (Morone americana) (other)
chain: B8 chain with Y78S
notes: Extracellular loop mutant of the screening library; also called Cx35 Y78S; not shown: C-terminal fluorescent protein fusion (mEmerald or RFP670 in FETCH)
For B9, the binding result in data set [2] is “no binding”.

B10: Cx35 mutant N56E (Morone americana) (other)
chain: B8 chain with N56E
notes: Extracellular loop mutant of the screening library; also called Cx35 N56E; not shown: C-terminal fluorescent protein fusion (mEmerald or RFP670 in FETCH)
With B10, the binding result in data set [2] is reported as “no binding”.

B11: Cx35 mutant Y78V (Morone americana) (other)
chain: B8 chain with Y78V
notes: Extracellular loop mutant of the screening library; also called Cx35 Y78V; not shown: C-terminal fluorescent protein fusion (mEmerald or RFP670 in FETCH)
For the molecule B11, in data set [2], the binding result was “no binding”.

B12: Cx35 mutant Y78T (Morone americana) (other)
chain: B8 chain with Y78T
notes: Extracellular loop mutant of the screening library; also called Cx35 Y78T; not shown: C-terminal fluorescent protein fusion (mEmerald or RFP670 in FETCH)
On to B12, for which the binding result in data set [2] is “no binding”.

B13: Cx35E224H (Morone americana Cx35 mutant E224H) (other)
chain: B8 chain with E224H
notes: Extracellular loop mutant of the screening library; not shown: C-terminal fluorescent protein fusion (mEmerald or RFP670 in FETCH)
For B13, the binding result in data set [4] and in data set [2] was “no binding” throughout. The figures for the FETCH score in [3] and in data set [5] were 5.9% and 0.4%, respectively.

B14: Cx35 mutant L237Y (Morone americana) (other)
chain: B8 chain with L237Y
notes: Extracellular loop mutant of the screening library; also called Cx35 L237Y; not shown: C-terminal fluorescent protein fusion (mEmerald or RFP670 in FETCH)
For B14, in data set [2], the binding result is “no binding”.

B15: Cx35E224K (Morone americana Cx35 mutant E224K) (other)
chain: B8 chain with E224K
notes: as for B13
For the molecule B15, the binding result in data set [6], in data set [4] and in [2] was “no binding” throughout. The FETCH score came to 0.8% in [3] and 0.5% in [5].

B16: Cx35E224R (Morone americana Cx35 mutant E224R) (other)
chain: B8 chain with E224R
notes: as for B13
Turning to B16, the binding result in data set [6], in data set [4] and in data set [2] was “no binding” throughout. The FETCH score in data set [3] was determined as 0.6%; in data set [5], 0.5%.

B17: Cx35K221E (designer connexin Cx35M1, Morone americana Cx35 with K221E) (other)
chain: B8 chain with K221E
notes: Rationally designed hemichannel; In C. elegans expressed as GFP or mCherry fusion; in mice from AAV9 as mApple or mEmerald fusion; not shown: C-terminal fluorescent protein fusion (mEmerald or RFP670 in FETCH)
For the molecule B17, the binding result in data set [7], in data set [6] and in data set [4] was “no binding” in each case. In addition, the FETCH score in [8] amounted to 1.2%; in data set [9], 1.2%; in data set [3], 1.5%; in data set [10], 1.7%.
